What all share (type): biochemical
For one assay, the target named is MMP-9 (Homo sapiens, UniProt P14780). Description: FRET-based detection of peptide cleavage by MMP-9. An excerpt:
Matrix metalloproteinases (MMPs) are involved in major human diseases such as cancer, AIDS, and inflammation. Therefore, sensitive detection and imaging of MMPs activities offer great clinical value to cancer detection, treatment, and therapy monitoring. Among many successful approaches that utilize peptide chemistry Förster resonance energy transfer (FRET) offers high potential for development of in-vitro and in-vivo proteases assays. Recently we developed and tested a specific peptide sequence that is a substrate for MMP-9 (Lys-Gly-Pro-Arg-Ser-Leu-Ser-Gly-Lys) (SEQ ID NO.: 3) (FIG. 4), which is cleaved into Lys-Gly-Pro-Arg-Ser (SEQ ID NO.: 4) and Leu-Ser-Gly-Lys (SEQ ID NO.: 5). Other non-limiting sequence targets can include, e.g., peptide substrates for a consensus for MMP-2 (Lys-Gly-Ser-Gly-Pro-Tyr-Val-Ile-Trp-Leu-Gly-Lys) (SEQ ID NO.: 6) (SEQ ID NO.: 7). In this approach, one end of the specific peptide was labeled with a donor and the other with an acceptor chromophore. A selective cleavage of this specific peptide sequence by MMP-9 protease results in the separation of the two segments of oligopeptide carrying the donor and acceptor and consequently leads to significant increase of donor signal and decrease in acceptor signal. A ratiometric approach allows excellent dynamic range for detection that produces an almost 60 fold change when going from intact to completely cleaved peptide.
They have also shown that the peptide is very specific and is not digested by MMP-2 enzyme MMP-3 or MMP-7 enzymes. FRET sensitized fluorescence detection proves to be very effective detection approach. Similar specific peptide sequences have been developed for MMP-2, MMP-7 and more. To make highly confident assessment of various proteases activities directly in cells and tissue it is necessary to have single molecular probe capable for simultaneous analysis/detection of more than one protease. […]

The target of a further assay is T1, MMP-2 (Homo sapiens, UniProt P08253).
T1 sequence (P08253 110-660): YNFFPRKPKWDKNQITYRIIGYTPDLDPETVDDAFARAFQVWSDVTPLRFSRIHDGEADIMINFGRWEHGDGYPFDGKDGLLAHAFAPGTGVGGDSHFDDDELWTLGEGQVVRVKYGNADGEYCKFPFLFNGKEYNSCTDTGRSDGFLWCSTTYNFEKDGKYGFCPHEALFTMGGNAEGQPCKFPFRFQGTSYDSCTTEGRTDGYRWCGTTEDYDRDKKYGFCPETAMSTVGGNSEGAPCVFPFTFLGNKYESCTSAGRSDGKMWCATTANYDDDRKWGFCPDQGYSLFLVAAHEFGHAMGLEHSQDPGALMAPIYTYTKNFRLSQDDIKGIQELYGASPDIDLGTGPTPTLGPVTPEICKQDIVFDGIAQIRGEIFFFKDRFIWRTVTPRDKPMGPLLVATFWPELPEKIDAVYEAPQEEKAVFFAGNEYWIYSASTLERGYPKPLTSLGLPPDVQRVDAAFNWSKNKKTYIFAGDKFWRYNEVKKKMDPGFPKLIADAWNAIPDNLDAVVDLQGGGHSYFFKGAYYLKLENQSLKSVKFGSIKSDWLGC
Description: specificity of peptide: digestion by MMP-2. Particulars: peptide as substrate. The source says: (§1) They have also shown that the peptide is very specific and is not digested by MMP-2 enzyme MMP-3 or MMP-7 enzymes. FRET sensitized fluorescence detection proves to be very effective detection approach. Similar specific peptide sequences have been developed for MMP-2, MMP-7 and more. To make highly confident assessment of various proteases activities directly in cells and tissue it is necessary to have single molecular probe capable for simultaneous analysis/detection of more than one protease. The present invention includes methods for developing and constructing a new probe that will be capable of simultaneous detection of activities of two proteases (like MMP-2 and MMP-9) at the same time and the same place by the same molecule (molecular construct). […] The probe is constructed in a way to force two sequential steps of energy transfer process. First step (FRET 1), is mediated through the cleavable linker specific to enzyme 1 (for example MMP-9) and occurs between the first energy donor and first acceptor (acceptor is a central body). Second step (FRET 2), is between the first acceptor that becomes donor to the second acceptor. The second donor and second acceptor are separated by linker specific to enzyme 2 (for example MMP-2). A highly efficient well-defined sequential FRET process offers distinctive signatures for recognizing two proteins activities. […]

For the next assay, the target named is MMP-3 (Homo sapiens, UniProt P08254). The assay can be described thus: specificity of peptide: digestion by MMP-3. The note with it: peptide as substrate.
MMP-3, sequence (P08254 100-477): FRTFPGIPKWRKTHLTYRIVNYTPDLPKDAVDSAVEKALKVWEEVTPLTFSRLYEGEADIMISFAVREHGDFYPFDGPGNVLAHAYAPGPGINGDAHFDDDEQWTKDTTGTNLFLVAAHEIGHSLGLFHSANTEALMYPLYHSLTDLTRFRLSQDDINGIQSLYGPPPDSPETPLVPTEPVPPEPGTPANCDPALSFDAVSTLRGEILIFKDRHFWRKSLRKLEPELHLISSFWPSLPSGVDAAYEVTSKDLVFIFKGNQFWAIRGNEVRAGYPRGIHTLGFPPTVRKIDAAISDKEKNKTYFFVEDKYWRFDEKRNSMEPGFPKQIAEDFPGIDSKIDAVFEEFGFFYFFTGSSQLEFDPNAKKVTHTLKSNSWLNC
Text: as §1

The target of another assay is T2, MMP-7 (Homo sapiens, UniProt P09237).
T2 sequence (P09237 95-267): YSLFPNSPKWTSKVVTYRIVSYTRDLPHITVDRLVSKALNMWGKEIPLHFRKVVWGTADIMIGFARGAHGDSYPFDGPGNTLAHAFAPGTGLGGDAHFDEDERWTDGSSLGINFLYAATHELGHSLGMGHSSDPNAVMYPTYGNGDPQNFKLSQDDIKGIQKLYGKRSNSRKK
The assay can be described thus: specificity of peptide: digestion by MMP-7. The note with it: peptide as substrate.
Text: as §1

Experimental findings from patent US9388450B2, “FRET based multiplex probes” (University of North Texas Health Science Center at Fort …, priority 2013, dated 2016) are described below.

Ends that are not written are not given here.

MMP-9, sequence (P14780 94-707): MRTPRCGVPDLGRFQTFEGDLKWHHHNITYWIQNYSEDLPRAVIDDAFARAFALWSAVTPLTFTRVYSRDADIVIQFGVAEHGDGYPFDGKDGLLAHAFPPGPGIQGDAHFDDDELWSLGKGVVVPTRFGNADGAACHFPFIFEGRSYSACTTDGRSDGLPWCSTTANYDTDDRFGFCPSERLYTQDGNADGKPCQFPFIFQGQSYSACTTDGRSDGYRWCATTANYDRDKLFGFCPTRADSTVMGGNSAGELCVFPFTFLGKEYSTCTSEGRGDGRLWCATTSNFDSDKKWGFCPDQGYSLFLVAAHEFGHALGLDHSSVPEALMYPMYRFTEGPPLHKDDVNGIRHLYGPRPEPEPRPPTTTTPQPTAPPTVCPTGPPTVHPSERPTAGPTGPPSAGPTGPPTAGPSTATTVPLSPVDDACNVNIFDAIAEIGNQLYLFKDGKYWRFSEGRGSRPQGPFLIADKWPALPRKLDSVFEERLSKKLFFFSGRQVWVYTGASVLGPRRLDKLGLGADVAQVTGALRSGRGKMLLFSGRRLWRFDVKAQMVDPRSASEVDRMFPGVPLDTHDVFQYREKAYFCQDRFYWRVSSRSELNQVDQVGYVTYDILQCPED

Turning to “Lys-Gly-Pro-Arg-Ser-Leu-Ser-Gly-Lys (KGPRSLSGK; also: donor and acceptor labels) [labeled with donor on one end and acceptor on the other]”, the “cleavage of the peptide by MMP-9” value with MMP-9 (peptide as substrate) is on record as “very effectively cleaves”. For the same substance, the FRET when intact in the assay with MMP-9 (peptide labeled with donor and acceptor, intact, before addition of MMP-9) is reported as > 90%. In the assay with MMP-9 (peptide labeled with donor on one end and acceptor on the other, cleaved by MMP-9), the “ratiometric change (donor/acceptor signal) going from intact to completely cleaved peptide” value is listed as ~60 fold. The “digestion of the peptide by MMP-2 enzyme” value with MMP-2 is “not digested”. Besides, the “digestion of the peptide by MMP-3 enzyme” value with MMP-3 is listed as “not digested”. Moreover, the “digestion of the peptide by MMP-7 enzyme” value with MMP-7 was “not digested”.
